Consider one molecule from paper PMC9798557 (2022).

For test [1], the target named is T1, CD38 on CD38-positive cell lines (human, UniProt P28907 1-300). Briefly: FACS; MOLP-8 cells.
The target in test [2] is T1, CD38 on CD38-positive cell lines. Nature of the test: FACS; RPMI 8226 cells. A general note: A flow cytometer gives signals particle by particle.
Test [3] shares this target. Briefly: FACS; Daudi cells.
Test [4] has the same target. Briefly: FACS; H929 cells.
For test [5] the target is unchanged. Briefly: FACS; MM1S cells.
The target is the same in test [6]. Briefly: FACS; Ramos cells.
Test [7] shares this target. Briefly: FACS; SU-DHL-6 cells.
Test [8] shares this target. Briefly: FACS; Raji cells.

B1: daratumumab (antibody, V domains shown)
VH: EVQLLESGGGLVQPGGSLRLSCAVSGFTFNSFAMSWVRQAPGKGLEWVSAISGSGGGTYYADSVKGRFTISRDNSKNTLYLQMNSLRAEDTAVYFCAKDKILWFGEPVFDYWGQGTLVTVSS
VL: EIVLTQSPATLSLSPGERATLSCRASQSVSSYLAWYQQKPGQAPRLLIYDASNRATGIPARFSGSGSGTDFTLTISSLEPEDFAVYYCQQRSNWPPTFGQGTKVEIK
By EC50 is commonly meant the concentration that produces a half-maximal response. Take B1: the EC50 was 0.28 µg/mL in test [1]; 1.19 µg/mL in test [2]; 0.289 µg/mL in test [3]; 0.767 µg/mL in test [4]; 0.581 µg/mL in test [5]; 0.74 µg/mL in test [6]. In addition, the EC50 in test [7] worked out at 0.548 µg/mL; in test [8], 0.321 µg/mL.
